Square brackets hold non-standard residues; d marks the D form. Peptide text beside a SMILES is read from it. * marks the point of attachment. DOTA = O=C(O)CN1CCN(CC(=O)O)CCN(CC(=O)*)CCN(CC(=O)O)CC1; Cha = N[C@@H](CC1CCCCC1)C(=O)O; Nle = CCCC[C@H](N)C(=O)O; Ahx = NCCCCCC(=O)O
Experiments:
[1] = Radio-HPLC retention time as reflection of lipophilicity; assay type: physicochemical; settings: chromatographic, econosphere C18 (10 μm, 250 × 4.6 mm), 0.1% TFA water/acetonitrile, 5 to 95% B over 30 min, 1.1 mL/min; radio detection; used as reflection of lipophilicity
Protocol: The HPLC analysis and purification of the peptides were performed on a Shimadzu HPLC system using econosphere C18 reversed-phase column (10 μm, 250 × 4.6 mm). For all HPLC experiments, a gradient system of 0.1% (v/v) TFA in water (solvent A) and 0.1% (v/v) TFA in acetonitrile (solvent B) at a flow rate of 1.1 mL/min was used. The HPLC gradient began with a solvent composition of 95% A and 5% B from 0 to 2.5 min followed by a linear gradient of 95% A and 5% B to 5% A and 95% B over 30 min. The gradient remained at this position for 3 min before switching back to 95% A and 5% B for another 7 min. The major peak isolated and the acetonitrile was then slowly evaporated under a stream of nitrogen gas. Radiochemical purity was estimated by evaluating radioactivity peaks eluted for each ^68Ga-labeled peptide from the HPLC column and calculating the area under the peak (ROI). The main peak of each radiopeptide was isolated and reconstituted in sterile saline for in vitro and in vivo experiments. Radiolabeling of DOTA-coupled BN peptides with ^68Ga was accomplished simply by mixing ~ 20 μg BN peptide with sodium acetate buffer and ^68GaCl3 followed by heating to complete the labeling reaction. By this facile method, a high and reproducible radiolabeling of peptides with ^68Ga was achieved (up to 95%), with a specific radioactivity of greater than 250 Ci/mmol. […] A radiolabeling efficiency of greater than 90% was obtained in all cases, and it ranged between 90 and 95%. […] RP-HPLC retention times of the major peaks, ranging from 18.3 to 20.3 min, reflected slightly variable lipophilicity of these ^68Ga-complexes (Table 1).

[2] = in vivo; set-up: species or system Balb/c mice; settings: Balb/c, mouse, iv
Protocol: Approval for the animal protocol used in this study was obtained from the Institutional Animal Care and Use Committee. Animal studies were conducted according to the international regulations governing the safe and proper use of laboratory animals. In vivo biodistribution were performed on healthy Balb/c mice (n = 3–5 in each group, body weight 19–22 g) at 1 and 2 h after intravenous injection of the HPLC-purified radiopeptide (100 μL, 15–20 μCi, total peptide dose ~ 20 ng) via the lateral tail vein. The mice were sacrificed by cervical dislocation at specified time points and blood samples were withdrawn with a syringe from the heart. Major organs such as lungs, stomach, spleen, pancreas, intestines, liver, kidneys, etc. were isolated, weighed, and radioactivity in each organs and tissues were measured using a γ-scintillation counter. Uptake of radioactivity in the tissues and organs was expressed as the percent injected dose per gram (% ID/g) of tissue/organ, which was calculated by comparison with standard solutions representing 10% of the injected dose per animal. For the clearance studies, radioactivity in the urine with bladder and feces is expressed as the percent of the injected dose per tissue (% ID). Values are expressed as mean ± SD for a group of 3-5 animals at each time point.

[3] = system: MDA-MB-231 tumors; assay: in vivo; assay type: in vivo, nude mice; settings: for Radioactivity in Urine + bladder / Uptake in Blood / Uptake in Intestines (measured without their contents) / Uptake in Kidneys / Uptake in Liver / Uptake in Lungs / Uptake in Muscle / Uptake in Pancreas / Uptake in Spleen / Uptake in Stomach: female, nude, mouse, in vivo; for Uptake in Tumor: nude mice with MDA-MB-231 tumors, mean ± SD, n = 3-5
Protocol: BN/GRP receptor-positive MDA-MB-231 and PC3 cell lines (American Type Culture Collection, Rockville, USA) were grown as monolayers at 37 °C in a humidified atmosphere containing RPMI-1640 culture media with 10% fetal bovine serum (FBS) in tissue culture flasks. Twenty-four hours prior to conducting the tumor implantation, the media was replaced with RPMI-1640/10% FBS. The cells were grown to 80-90% confluency and harvested by trypsinization. After centrifugation, about 50 million cells were suspended in 1 mL media for implantation into mice. To prepare cells for inoculation, MDA-MB-231 or PC3 cancer cells with media were centrifuged, the media decanted, and the cell pellet was mixed with phosphate-buffered saline (PBS) to reach a concentration of approximately 5 million cells per 100 μL PBS. Human MDA-MB-231 breast cancer xenografts female mouse models were used for in vivo tumor-targeting experiments. For the implantation of tumor xenografts, approximately five million MDA-MB-231 cells in suspension of 100 μL sterile PBS were injected subcutaneously into the left thigh of each mouse. Tumors were allowed to grow for 4-6 weeks by which tumors had reached weights of 200-300 mg. After sufficient growth of tumors, animals were injected with 20-30 μCi of the radiotracers and the animals were sacrificed at specified time points. The uptake of ^68Ga-radiolabeled peptides in the tumors and other major body organs was calculated by γ-counting as described above.

In the case of `CCCC[C@H](NC(=O)[C@H](Cc1c[nH]cn1)NC(=O)[C@H](CC1CCCCC1)NC(=O)[C@@H](NC(=O)[C@H](C)NC(=O)[C@H](Cc1c[nH]c2ccccc12)NC(=O)[C@H](CCC(N)=O)NC(=O)[C@H](CS)NC(=O)CNC(=O)CNC(=O)CCCCCNC(=O)CN1CCN(CC(=O)O)CCN(CC(=O)O)CCN(CC(=O)O)CC1)C(C)C)C(=O)N[C@@H](CCSC)C(N)=O` [^68Ga-DOTA-Ahx-BN Tris-, metal not drawn] ({DOTA-Ahx}-GGCQWAV[Cha]H[Nle]M-NH2), the “Radio-HPLC tR” value [1] is reported as 18.3 min, the “%ID excreted in Feces” value ([2]; 1 h) is reported as 0.83 ± 0.19 %ID and the “%ID excreted in Urine” value ([2]; 1 h) is reported as 74.0 ± 8.03 %ID. The “Uptake in Blood” value ([2]; 1 h) was 0.29 ± 0.05 %ID/g, the “Uptake in Bone” value ([2]; 1 h) was 0.17 ± 0.03 %ID/g and the “Uptake in Intestines (measured without their contents)” value ([2]; 1 h) was 0.67 ± 0.12 %ID/g. For the same compound, the “Uptake in Kidneys” value ([2]; 1 h) was 2.89 ± 0.41 %ID/g, the “Uptake in Liver” value ([2]; 1 h) was 1.12 ± 0.30 %ID/g and the “Uptake in Lungs” value ([2]; 1 h) was 0.36 ± 0.10 %ID/g. For the same compound, the “Uptake in Pancreas” value ([2]; 1 h) was 2.0 ± 0.27 %ID/g, the “Uptake in Spleen” value ([2]; 1 h) was 0.09 ± 0.01 %ID/g and the “Uptake in Stomach” value ([2]; 1 h) was 1.71 ± 0.19 %ID/g. For the same compound, the “%ID excreted in Feces” value ([2]; 2 h) was 0.69 ± 0.10 %ID, the “%ID excreted in Urine” value ([2]; 2 h) was 69.0 ± 5.15 %ID and the “Uptake in Blood” value ([2]; 2 h) was 0.17 ± 0.02 %ID/g. The “Uptake in Bone” value ([2]; 2 h) was 0.09 ± 0.01 %ID/g, the “Uptake in Intestines (measured without their contents)” value ([2]; 2 h) was 0.43 ± 0.09 %ID/g and the “Uptake in Kidneys” value ([2]; 2 h) was 1.63 ± 0.24 %ID/g. For the same compound, the “Uptake in Liver” value ([2]; 2 h) was 0.53 ± 0.09 %ID/g, the “Uptake in Lungs” value ([2]; 2 h) was 0.22 ± 0.05 %ID/g and the “Uptake in Pancreas” value ([2]; 2 h) was 1.25 ± 0.13 %ID/g. For the same compound, the “Uptake in Spleen” value ([2]; 2 h) was 0.06 ± 0.0 %ID/g, the “Uptake in Stomach” value ([2]; 2 h) was 0.48 ± 0.06 %ID/g and the “Radioactivity in Urine + bladder” value ([3]; 1 h) was 66.0 ± 6.60 % injected dose per tissue. For the same compound, the “Uptake in Blood” value ([3]; 1 h) was 0.70 ± 0.12 % ID/g, the “Uptake in Intestines (measured without their contents)” value ([3]; 1 h) was 0.89 ± 0.12 % ID/g and the “Uptake in Kidneys” value ([3]; 1 h) was 4.85 ± 0.43 % ID/g. For the same compound, the “Uptake in Liver” value ([3]; 1 h) was 2.20 ± 0.33 % ID/g, the “Uptake in Lungs” value ([3]; 1 h) was 1.86 ± 0.14 % ID/g and the “Uptake in Muscle” value ([3]; 1 h) was 0.28 ± 0.04 % ID/g. The “Uptake in Pancreas” value ([3]; 1 h) was 1.30 ± 0.18 % ID/g, the “Uptake in Spleen” value ([3]; 1 h) was 0.33 ± 0.02 % ID/g and the “Uptake in Stomach” value ([3]; 1 h) was 0.87 ± 0.11 % ID/g. The “Radioactivity in Urine + bladder” value ([3]; 2 h) was 68.0 ± 7.55 % injected dose per tissue, the “Uptake in Blood” value ([3]; 2 h) was 0.60 ± 0.09 % ID/g and the “Uptake in Intestines (measured without their contents)” value ([3]; 2 h) was 0.50 ± 0.10 % ID/g. For the same compound, the “Uptake in Kidneys” value ([3]; 2 h) was 3.74 ± 0.24 % ID/g, the “Uptake in Liver” value ([3]; 2 h) was 1.83 ± 0.24 % ID/g and the “Uptake in Lungs” value ([3]; 2 h) was 0.61 ± 0.07 % ID/g. The “Uptake in Muscle” value ([3]; 2 h) was 0.20 ± 0.02 % ID/g, the “Uptake in Pancreas” value ([3]; 2 h) was 0.75 ± 0.11 % ID/g and the “Uptake in Spleen” value ([3]; 2 h) was 0.16 ± 0.01 % ID/g. The “Uptake in Stomach” value ([3]; 2 h) was 0.60 ± 0.07 % ID/g, the “Uptake in Tumor” value ([3]; 1 h p.i.) was 2.09 ± 0.33 % ID/g and the “Uptake in Tumor” value ([3]; 2 h p.i.) was 1.62 ± 0.18 % ID/g.
